This assay concerns the target T1, KAP1 RBCC (wild type), SPR analyte (human (by the printed UniProt entry), UniProt Q13263 50-413).
T1 construct: KAP1 (TRIM28) RBCC motif; probably as in Stoll et al, 2019; also called WT KAP1 RBCC; wild-type KAP1; source: E. coli BL21(DE3)
Kind of assay: SPR; Biacore T200, CM5 chip; MBP-KRAB immobilised (about 300 RU ZNF93 WT, 600 RU E35R); KAP1 RBCC flowed, 1:2 dilution series from 40 μM; 20 mM HEPES pH 8.0, 0.5 M NaCl, 0.5 mM TCEP, 20°C; biphasic kinetic model. The following applies: both partners purified.

Results on 2 molecules are retold here after paper PMC9753469, “Structure and functional mapping of the KRAB‐KAP1 repressor complex” (The EMBO Journal, 2022).

T1 sequence (Q13263 50-413): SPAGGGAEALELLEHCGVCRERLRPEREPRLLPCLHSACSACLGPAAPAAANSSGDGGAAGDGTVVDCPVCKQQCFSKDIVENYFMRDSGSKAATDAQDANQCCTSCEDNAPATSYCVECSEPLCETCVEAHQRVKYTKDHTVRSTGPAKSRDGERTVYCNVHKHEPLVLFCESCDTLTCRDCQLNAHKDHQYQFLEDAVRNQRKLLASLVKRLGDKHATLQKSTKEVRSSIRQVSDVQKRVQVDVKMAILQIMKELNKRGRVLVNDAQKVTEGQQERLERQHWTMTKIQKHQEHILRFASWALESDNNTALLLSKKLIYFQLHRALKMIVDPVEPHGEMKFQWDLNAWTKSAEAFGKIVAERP

B1: MBP-KRAB (ZNF93 KRAB E35R) (domain or fragment)
chain: not shown
notes: ZNF93, human, residues 2-71 (KRAB domain), E35R; also called ZNF93 E35R; source: E. coli BL21(DE3); not shown: MBP, N-terminal, kept
A word on the Kd: it is a measure of binding affinity in units of concentration. B1: the dissociation constant Kd amounted to 0.198 µM.

B2: MBP-KRAB (ZNF93 KRAB, wild type) (domain or fragment)
chain: not shown
notes: ZNF93, human, residues 2-71 (KRAB domain); The purification of MBP-KRAB alone is not described; also called ZNF93 WT; source: E. coli BL21(DE3); not shown: MBP, N-terminal, kept
B2 yielded a Kd of 0.0075 µM.
